Data on 1 molecule can be found in US11839630B2, “CAR-T cells targeting IL-1RAP and their use” (ETABLISSEMENT FRANCAIS DU SANG, priority 2017, dated 2023).

Common to all, as to assay type: binding, human
Test [1] deals with IL-1RAP-positive (KU812) cell line. Kind of test: FACS screening of hybridoma subclones. The conditions noted are these: 5 monoclonal antibody subclones. The text has this:
Briefly, BALB/c mice (5 weeks, Charles River) were immunized either by foot pad (n=3) or intraperitoneally (n=5) with a recombinant fusion protein consisting of the extra cellular part of IL-1RAP (NM_002182.2, NCBI) and the Fc-part of human IgG1 (R&D Systems, Lille, France). Lymph nodes or spleens cells and blood samples were harvested and cells were fused with the mouse myeloma cell line, then screened by FACS analysis (Becton Dickinson), against IL-1RAP-positive (KU812) and −negative (Raji, KG1) cell lines.
Screening of hybridoma allowed to select 5 monoclonal antibodies subclones that discriminate IL-1RAP positive (KU812 or KG-1 respectively AML or Phi^+p^210 CML) from negative cell lines (Tom-1, NALM-20, Jurkat or Raji, respectively Phi+^p190 B-ALL, Phi-B-ALL, T-ALL or Burkitt's lymphoma).
Molecular characterization was performed by Sanger sequencing of cloned PCR products amplification obtained with degenerated primers specific of the FR1 and constant regions of the heavy and light chains according to the protocol of Wang. Z., et al (J. Immunol. Methods, 2000; 233, pp 167-77). Identification of V-D-J-C gene rearrangement and CDR3 region was obtained after alignment of consensus nucleotide sequences against the IMGT® database using V-QUEST online tool according to Brochet X., et al. (Nucleic Acids Res., 2008, 36, pp 503-8).

The test system of test [2] is HMEC-1 endothelial cell line. As to the kind of experiment: Staining of HMEC-1 dermal endothelial cell line. Particulars: flow cytometry staining. From the text:
FIG. 22: (A) Tissue microarray. Representative #A3C3 staining of an US Food and Drug Administration standard frozen tissue array, including 90 tissue cores (30 organs) of 3 individual donors per organ (US Biomax, Rockville, MD, USA). Immunostaining was detected using the UltraView Universal DAB Detection Kit (Ventana, USA). Images were acquired and analyzed with NDP.view 2.0 software. […] (Scale bars, 100 μm.) High IL-1RAP (KU812)— or negative (Raji)-expressing cell lines were respectively used as positive or negative controls. (B) IL-1RAP R&D (red) or #A3C3 (blue) staining of HMEC-1 dermal endothelial cell line. Isotype IgG1 (gray) is depicted as overlay. RFI is provided for both staining.
(In general: A flow cytometer gives signals particle by particle.)

Test [3] has as its system HSCs. As to the kind of experiment: IL-1RAP cell surface staining of healthy HSCs. The method, then: FIG. 23: Effect of IL-1RAP CAR T cells on healthy hematopoietic cells and efficiency of the safety suicide gene iCASP9 cassette. (A) IL-1RAP cell surface expression on peripheral blood (left) or bone marrow (right) cells from healthy donors (n=5). SSC-A/CD45+ allowed discrimination of subpopulations as lymphocytes (SSC-A low), monocytes (CD33+), granulocytes (SSC-A high), or HSCs (CD33−/CD34+). RFI was calculated from isotype staining and provided in each window. (B) Representative (1 of 3) IL-1RAP staining of whole human cord blood cells. IL-1RAP staining is provided for whole CD34+, CD34+/CD38−, and CD34+/CD38+ HSC cord blood subpopulations. […] Percentages were calculated using absolute cell number determined using Trucount™ tubes based on 5000 fluorescent-bead cytometry acquisition. […] The quantification was performed after acquiring 5000 fluorescent beads. […] Cell killing was calculated as follows: % Dead cells=[1−(absolute number of viable cells in AP1903-treated cells/absolute number of viable cells in untreated cells)]×100. […] (G) Absolute quantification of IL-1RAP CAR T cells injected in a tumor (CML KU812, i.v.) xenograft NSG model 24 h after i.p. AP1903 (white bars) treatment (n=3 mice/group). […]

B1: #E3C3: mouse anti-hIL-1RAP monoclonal antibody subclone generated by standard hybridoma technique; VH SEQ ID NO: 2, VL SEQ ID NO: 4 (antibody, V domains shown)
VH: MGWSCIILFLVATATGVNSQVQLQQPGAELMMPGASVKVSCEASGYTFTDSWMHWVKQRPGQGLEWIGAIDPSDSYTTYNQKFTGKATLSVDESSNTAYMQLSSLTSEDSAVYYCARYYSGSNYISPFPYWGQGTLVTVSA
VL: MESQIQVFVFVFLWLSGVDGDIVMTQSHKFMSTSVGDRVTITCKASLDVSTAVAWYQQKPGQSPKLLIYSASYRYTGVPDRFTGSGSGTDFTFTISSVQAEDLAVYYCQQHYSPPFTFGSGTNLEIK
modifications: Amino acid sequence of chain H (VH) of murine scFv anti-IL-1RAP; Amino acid sequence of chain K (VL) of murine scFv anti-IL-1RAP
Regarding B1, the “relative fluorescence intensity (RFI) by cytometry among subclones” value in test [1] was “highest relative fluorescence intensity”. Moreover, in test [2], the “recognition of HMEC-1 cell surface” value is reported as “not recognized”. Besides, the “detection of HSCs” value in test [3] (bone marrow from healthy donors or normal cord blood) is on record as “did not detect”. In addition, the “RFI of HSC staining” value in test [3] (bone marrow from healthy donors, n=5) was less than 1.2.
